The values that follow come from paper PMC10774444, “BPG4 regulates chloroplast development and homeostasis by suppressing GLK transcription factors and involving light and brassinosteroid signaling”.

This data set has as its target T1, GST-GLK1 (Arabidopsis thaliana, UniProt Q9SIV3 1-420).
T1 sequence: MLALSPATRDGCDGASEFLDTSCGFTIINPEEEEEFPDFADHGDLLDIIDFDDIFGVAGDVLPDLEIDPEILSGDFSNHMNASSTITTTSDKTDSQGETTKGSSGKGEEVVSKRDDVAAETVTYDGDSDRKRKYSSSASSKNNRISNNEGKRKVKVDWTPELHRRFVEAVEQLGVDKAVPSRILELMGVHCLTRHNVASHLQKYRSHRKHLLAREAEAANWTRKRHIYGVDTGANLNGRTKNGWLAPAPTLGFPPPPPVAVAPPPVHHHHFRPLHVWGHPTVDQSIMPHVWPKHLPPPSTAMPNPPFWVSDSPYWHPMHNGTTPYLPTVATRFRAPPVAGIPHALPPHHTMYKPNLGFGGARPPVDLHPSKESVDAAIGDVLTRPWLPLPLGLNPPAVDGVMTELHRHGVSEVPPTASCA
As to the kind of experiment: EMSA; without BPG4; GLK1 EMSA: 10 mM Tris-HCl pH 8.0, 50 mM KCl, 10 mM EDTA, 2.5% glycerol, 1 mM DTT, 0.05 ug/ul poly(dI-dC), 5 pmol probe; proteins preincubated on ice 5 min then. Conditions: protein: recombinant; tags: N-term GST (pGEX-6P-3); label: FAM; blunt.

B1: CAO-probe (dsDNA)
DNA 1: TTTAGATCCCATGATTCTCAACACGACTGA
DNA 2: TCAGTCGTGTTGAGAATCATGGGATCTAAA
As to B1, the binding result was “binds”.
